Measurements published in US20250304707A1.
Residue numbers refer to the chain shown, from its start. Blank lines part the entries; values can stand above or below the binder they belong to.

Experiments:
[1] = target: T1, human APRIL/TNFSF13 (human), O75888; assay: BLI (Octet RED384), APRIL/TNFSF13 on AR2G sensors, 71 nM human BCMA analyte, no antibody; settings: remark: other sources report otherwise
T1 chain: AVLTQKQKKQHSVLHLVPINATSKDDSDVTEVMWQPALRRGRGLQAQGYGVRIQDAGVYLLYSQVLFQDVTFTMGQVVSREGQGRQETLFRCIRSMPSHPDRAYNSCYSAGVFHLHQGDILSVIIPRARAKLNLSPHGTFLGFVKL

[2] = target: biotinylated human BCMA (human) (UniProt Q02223); assay: BLI (Octet RED384), biotinylated human BCMA on SAX sensors, scFv 1200 nM analyte, 1:1 model

B3: 01-026 (scFv) (scFv, part only; not given: linker, domain order, Myc-His tags, V domains shown, not shown: another chain or arm of the molecule; small tags and cut ends)
VH: EVQLVQSGGGLVQSGGSLRVSCAASGFTFSSGLMSWVRQAPGKGFEWVSGYNGGSDRAGYTDSVKGRFTISRDNAKNTLYLQMNSLKPEDTAVYYCARYIANSGTYYWDYWGQGTTVTVSS
VL: QSVLTQPPSVSGAPGQRVTISCTGSSSNIGAGYDVHWYQQLPGTAPKLVIYGNTNRPSGVPDRFSGSKSGTSASLAISGLQSEDEADYYCAAWDDSLNGWVFGGGTKLTVL
- Kd [2]: 59.6 nM
- Response [2]: 0.115 nm
- koff [2]: 0.00248 s⁻¹
- kon [2]: 41700 M⁻¹ s⁻¹

B4: 01-027 (scFv) (scFv, part only; not given: linker, domain order, Myc-His tags, V domains shown, not shown: another chain or arm of the molecule; small tags and cut ends)
VH: B3 VH
VL: QAVLTQPPSASGTPGQRVSISCSGGISNIGSNIVNWYQHLPGTAPKLLIYSGNQRPSGVPDRFSGSKSGTSASLAISGLQSEDEADYYCSSWDSDLRNWVFGGGTKLTVL
- Kd [2]: 3.38 nM
- Response [2]: 0.171 nm
- koff [2]: 0.00096 s⁻¹
- kon [2]: 284000 M⁻¹ s⁻¹

B5: 01-030 (scFv) (scFv, part only; not given: linker, domain order, Myc-His tags, V domains shown, not shown: another chain or arm of the molecule; small tags and cut ends)
VH: B3 VH with S14P, T28S, Y60F, T61A, K65E, T116L
VL: QSALTQPPSASGTPGQRVTISCSGSISNIGSNTVNWYQHLPGTAPKLLIYNHNQRPSGVPDRFSGSTSGTSASLAISGLQSEDEADYFCATWDDSLSAWLFGGGTKLTVL
- Kd [2]: 8.42 nM
- Response [2]: 0.172 nm
- koff [2]: 0.000939 s⁻¹
- kon [2]: 112000 M⁻¹ s⁻¹

Continued, values first:

- Response [1]: 0.659 nm
B1: human BCMA (soluble analyte of Examples 8 and 14), Q02223 1-54 (receptor, UniProt Q02223 1-54, looked up)
chain: MLQMAGQCSQNEYFDSLLHACIPCQLRCSSNTPPLTCQRYCNASVTNSVKGTNA

- Kd [2]: 1.5 nM
- Response [2]: 0.174 nm
- koff [2]: 0.00057 s⁻¹
- kon [2]: 380000 M⁻¹ s⁻¹
B2: 01-024 (scFv) (scFv, part only; not given: linker, domain order, Myc-His tags, V domains shown, not shown: another chain or arm of the molecule; small tags and cut ends)
VH: B3 VH with G50C
VL: B4 VL

- Kd [2]: 15.5 nM
- Response [2]: 0.183 nm
- koff [2]: 0.00128 s⁻¹
- kon [2]: 82600 M⁻¹ s⁻¹
B6: 01-025 (scFv) (scFv, part only; not given: linker, domain order, Myc-His tags, V domains shown, not shown: another chain or arm of the molecule; small tags and cut ends)
VH: B3 VH
VL: QPVLTQPPSVSEAPRQRVTISCSGSSSNIGNNAVNWYQQLPGKAPKLLIYSTNQRPSGVPDRFSGSKSGTSASLAISGLQSEDEADYYCAAWDDRVSAWLFGGGTKLTVL
